The target in test [1] is H2A.Z/H3K9cme3 mono-nucleosome (208-bp 601 Widom DNA) (mouse | Xenopus laevis) (UniProt P0C0S6). The test can be described thus: AUC.
Test [2] shares this target. Kind of test: AUC. This is another data set of the same source.

pKd: −log10 of the molar value. Where two headings read alike, the source gives them in different places.

Sequence of human HP1α (heterochromatin protein 1 alpha), full length (P45973 whole entry): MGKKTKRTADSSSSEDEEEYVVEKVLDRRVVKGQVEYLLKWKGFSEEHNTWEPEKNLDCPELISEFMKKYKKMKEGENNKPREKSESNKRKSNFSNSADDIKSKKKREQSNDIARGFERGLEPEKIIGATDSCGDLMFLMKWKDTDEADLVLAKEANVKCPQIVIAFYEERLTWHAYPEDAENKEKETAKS

Broadly, the pKd is the negative decadic logarithm of the Kd, by convention in mol/L. Low values mean a large Kd, high ones a small Kd. Regarding “human HP1α (heterochromatin protein 1 alpha), full length (from UniProt P45973 1-191) (natural protein)”, in test [1], the negative-log Kd (pKd) was 6.00 and the stoichiometry N (HP1α dimers per nucleosome) turned out to be 2. Besides, the pKd in test [2] is 3.07.

(Values after article PMC11560701.)
